In the domain aggregation screens of Martell et al. (2025):

test: soluble fraction after stress (log2 fold change); higher = more stays soluble; pooled small domains, quantitative proteomics; details: stress: pH 4
Summary of the method: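 Custom libraries of small protein domains were pooled and measured with high-throughput quantitative proteomics after pH 4 stress. The read-out is the fold change in the amount of each domain that stays soluble after the acid stress, taken as a measure of aggregation propensity. Fold changes are on a log2 scale, and higher values mean more of the domain stayed soluble.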

Row | Sequence | soluble fraction (log2)
1 | HMGQVSEAGELEVAADRVIAANPEAVTKYKSGNENILQFLVGQMMKETKGAANPQVAAEILRKKIV | 0.0296
2 | HMKNINTNIGKNLKRIRKLRGLTIDALATSSGVSKSMISEIERGIRNPSITIIWSLANALKTPLNYFLKE | ≥ 0.43
3 | HMSDDLIILGYSMLNNALKAFHIDPDSIKKKHWDKLAQDYHLKNKNQILTDIALGKRVNIMVAHQLTTIMD | -1.32
4 | HMSAQDLIVRRDSARIEARVTEISPTEIRYKRASNPDGPTYVLPLGDVRSIRYANGEEEVFAPA | -0.0969
5 | HMDNPLSQQEKRILQLISLGKTNQEIADILYLSNGTVRNYISSILNKLSANNRVEAARIAEEHGW | -0.929
6 | HMRRVGTALNRSHKVSYGESIQSIAARYNVNPTMLREYNRLKPEATITPGQILRIPPATIAS | -0.195
7 | HMTEFFNMQDMFYFKLTGDVTSKERRQSLGKILGIGYGNAAQMVSRLNNYGITKEEFTNAINEIEKQMEAG | -0.511
8 | HMSPAETGIYHILVENGKPNRHGLDATNKNENWLRQFLITQNTRLEDVFLLLADDGGGIRFFKSQ | -0.658
9 | HMKQQFTREQIIELMYKAYKKHKKKLNRVEIKKEKALPSYVTIGRYLNETSIKKIWEIVLSEKE | -0.388
10 | HMRAERVQITDPYIELHTGPGRGFPIFFVAPREQWISIELRHTDWFKVRAVGGQVGWVQRKQLEST | -0.295
11 | HMPERLTYVHPDGAEPMRADKALAAFLSGRISRSRLLGSFSAGKVMAGGKPVEKKLLLRAGDALEVELPEP | 0.0894
12 | HMPKMDGLTVMEQVNQDHFVNKRPYFIVITAVGQEKITEDAFNKGANYYVMKPFNNNMLLERIKSVRK | 0.0916
13 | HMKDYKSALQELIQSGDKRVISYHTLKETGPSHNREFEAAVKLDGNIILGVGKGKTKKEAEQNAAHEALKK | 0.165
14 | HMGSIDYLVGSRLRQYRRLRGYSLIEFSAMLHRSKSAISKYERGEVSIDLRTLNEMARLLDIPLSGLLL | -0.283
15 | HMSRWHEFLNKSEDGMKELDEQNQKVLTLLILQRFYQTPFQAKEDEEFYREFFERLSSVNEILG | -0.283
16 | HMDVQEILGALSPDEKAAIGQLTSGEKHIDQIIAATRLPAARITSALTLLQIKGYVRALPGKRFSLTEKQ | ≥ 0.43
17 | HMPNQLLELVEMEIRDLLNEYEFPGDDTPIIQGSALKALEDPMGPWGDKIMDLMDAVDSYIPDPE | -1.46
18 | HMGKAYMVPDVKNKSVNQAQLLLADKHMNGVVVDSSYVKELPAGIVLDQTPVGGMKVKEGRTVYLTINSD | 0.0742
19 | HMRTKEGLASQLEKIPGIGPVKRKALLKKFGSIDAIAAASKEELMLTDGITSSLADAIRDYF | 0.391

Row | Sequence | soluble fraction (log2)
20 | HMSTALTPLTTREREVLALMAEGLTNSGIAARLVLTDRTVETHVSRILHKLGLGETTTNEHRRVLAVLRYL | -0.716
21 | HMDDYRIEDMMTVVEEQVIRQKETNLSWFFKRAGSLNEIITIFLAALELIKVHRVYVKQEHNFDDIILRKE | -0.872
22 | HMENEIPVPELVGMSEADAAAKLASLGLERDTQREATADEESVGKVLRQEPTPGEYVDEGHKVTIWVGE | 0.22
23 | HMGDITIPDLQGMSFDQAREKLKALGLSIGKISYTSDTSKDDGVVISQGLQAGGKASKGATVDITINET | -0.177
24 | HMQAPIFMNETDGKWYFREKYLNDNHEIAYRVHPEGYDQMEDALRNSVNALNEFAAEMKELRKQV | -0.64
25 | HMALPQPDDDRQDTKKRILDMAEDLLLTRGFNAFSYQHISSELGMKNAAIHYHYPKKNDLGVAVIQRYRRR | -0.178
26 | HMNNNIFVYPNPSINYINIDSDEEIWKLEIIQMSGEKINILPFSKRIDISFLSKGLYILNFNNYYIKFIK | -0.937
27 | HMGFSKGKRDLIRMIKLAIRELADDNGRAQIEDVITRLVQEGHSRDEIRLQIDMFLRQGEAMEPKQGIIKL | -0.891
28 | HMDAISYTQFMEEAKQGRINKVEVQGRTLMVTPTDGKAYSLTSPGDLWMTTDLMKYGVNVYGAE | -0.527
29 | HMESRETGLPVVIISDGRILQDNLKRRGLDLSWLDKQLAEHGYPDFRDVFLLTVDEAGGVYFVPRE | -0.145
30 | HMGQAAHYEGVKGDGESDTDVISRVLTAAGAEAQKDDIFVVKELIAGGKYSYTAYVYDGSVWAAM | -0.502
31 | HMRNNKLRRANKLKTEFENLPHIGKKRAHVLLKAFGSTENLKMTTAQALSEAAKISLKQAEEVLEAVRG | -0.0912
32 | HMVPADVQHLRDIVDTMTEKQQLVYKLHVLEGYTFTEIAKLMGTSIPNVKKHYDKAILFIKNNF | -0.165
33 | HMPPQPATQNTKAQVMQLAREKELMAGEGRGANVEALEKFANEHGISLRGMTEEQAEQLVKLLMEYTP | 0.19
34 | HMSNTPHSREVLLEMDAVRRLLAVGEEKGEVDRADLQGAFEEAELGRGDLDGVLSILREYDVPLAR | -0.15
35 | HMRIASANAIYDELLNKRDDAKLAELKQEDINLYALYILQNGSADERAALENTQGIDVVLKEIINLQNG | -0.416
36 | HMIKIEDYTNKDYNKVEASLEVKGLVVNIEYKAVDDKAKYKGKEDLIIDQSVKKDATLVKGDTIILYLPK | 0.0435
37 | HMGIIVDMSKIKQMLQLSEAGHSNRKIALELGINKETVNNYMQLIRNGRLDIRQLLKMDDPELERRFHA | 0.23
38 | HMGQAEEVRYSTFLDEVRNGRIEQVVLQGEHIIGTRKDKTVFSVFNPETDYTALIGTLSKSGVTIEGRP | 0.103
